± gives the uncertainty stated by the source.
Assay: protein stability index of a GFP-peptide fusion (yeast GPS) (PSI 1-4); higher = more stable; sorted into four equal gates, so the index is relative within each strain
How it was run: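 Plasmids isolated from each sorting gate were PCR-amplified and Illumina-sequenced, and barcodes assigned the reads to strains. The gates, four of equal size, were set by GFP/Cherry fluorescence ratio on mid-log cultures in leucine-free medium. These cultures were yeast carrying a pooled library of tiled 17-residue yeast protein peptides fused downstream of GFP on a plasmid that also expresses Cherry. The protein stability index is the sum of every gate's read frequency times its gate number.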

Sequence | protein stability index (doa10∆) | protein stability index (pdr5∆) | protein stability index (san1∆) | protein stability index (ubr1∆)
TANATAELNLPTVDEQR [SNF11] | 3.04 ± 0.035 | 3.14 ± 0.032 | 2.99 ± 0.043 | 3.147 ± 0.026
KNFENGPKKNVFYAPNV [RPC34] | 2.99 ± 0.068 | 2.94 ± 0.071 | 2.66 ± 0.084 | 3.14 ± 0.063
YNNRSLLDFNTALKQYE [RPN6] | 3.32 ± 0.097 | 3.04 ± 0.084 | 3.15 ± 0.067 | 3.13 ± 0.099
NTEEKAELQSNLQVELL [YGL100W/SEH1] | 3.06 ± 0.064 | 3.02 ± 0.087 | 1.96 ± 0.13 | 2.74 ± 0.083
NQQAQARQQVAQQLRNQ [GAL11] | 2.49 ± 0.065 | 2.94 ± 0.13 | 2.45 ± 0.14 | 2.34 ± 0.1
KRVTKVKRLLFTIRGFK [MTW1] | 2.34 ± 0.057 | 2.52 ± 0.043 | 2.14 ± 0.057 | 2.54 ± 0.042
NGDKKVDIYSLPLISTD [YMR129W/POM152] | 2.88 ± 0.076 | 2.76 ± 0.056 | 2.88 ± 0.034 | 3.03 ± 0.051
VLMETKNTQSPQTPLVE [SNU114] | 2.95 ± 0.16 | 2.93 ± 0.12 | 2.67 ± 0.087 | 2.96 ± 0.11
KKRFDEFMAGFNIISMT [SMC4] | 2.64 ± 0.097 | 2.52 ± 0.11 | 2.87 ± 0.096 | 2.14 ± 0.072
KKLEITSDGALSVMCGC [RPR2] | 2.63 ± 0.047 | 2.82 ± 0.054 | 2.8 ± 0.043 | 2.933 ± 0.029
EQEIENNGLPMKNKAET [ITC1] | 2.81 ± 0.065 | 3.06 ± 0.066 | 3 ± 0.045 | 2.9 ± 0.067
GDTIELAIIGDENPDLL [PRE8] | 3.56 ± 0.22 | 3.11 ± 0.17 |  | 
FQYGSRLPTFLKHKSIC [RPP1] | 2.24 ± 0.081 | 1.91 ± 0.055 | 1.68 ± 0.084 | 1.87 ± 0.063
IHSLVKQRLDLARQVKL [YIL149C/MLP2] | 2.69 ± 0.064 | 2.6 ± 0.061 | 3.03 ± 0.064 | 2.83 ± 0.047
LKQEIDRGLSIKLNGST [SNU114] | 2.88 ± 0.092 | 3.17 ± 0.11 | 3 ± 0.099 | 2.88 ± 0.09
FDALRSLDDNSTSLEKQ [YJL041W/NSP1] | 2.99 ± 0.086 | 3.03 ± 0.11 | 3 ± 0.062 | 3.02 ± 0.066
GGLRPFGVSFIYAGYDD [PRE9] | 2.44 ± 0.08 | 2.52 ± 0.075 | 2.26 ± 0.11 | 2.27 ± 0.083
VGEMKLLKKKDDPSKVR [YLR335W/NUP2] | 3.29 ± 0.08 | 3.32 ± 0.15 | 2.98 ± 0.091 | 2.74 ± 0.16
RGSLDSEHVFDYFFYFL [NUT1] | 2.8 ± 0.059 | 2.59 ± 0.042 | 2.71 ± 0.041 | 3.16 ± 0.032
EDRNQRIKEMYWKLWID [FAS1] | 3.17 ± 0.13 | 3.46 ± 0.1 | 3.16 ± 0.11 | 3.08 ± 0.087
NNNINENELFNDRKQTT [SSN2] | 2.71 ± 0.12 | 3.09 ± 0.1 | 2.87 ± 0.1 | 2.78 ± 0.14
LPDEKSDAMSIDEEDKD [YCG1] | 3.04 ± 0.17 | 2.36 ± 0.11 | 2.94 ± 0.12 | 3.06 ± 0.074
DEATVPNTRDAESEAIT [SWI3] | 3.09 ± 0.077 | 3.15 ± 0.06 | 3.18 ± 0.066 | 3.23 ± 0.052
VGVNKDSYLILDTLPSE [RPT5] | 3.15 ± 0.069 | 3.18 ± 0.08 | 3.19 ± 0.078 | 3.14 ± 0.032
PSQTLFSISYKPPTQKT [SRP21] | 2.23 ± 0.036 | 2.2 ± 0.039 | 1.97 ± 0.056 | 2.1 ± 0.032
GNSEAIPGLSAGVNNDN [RTT102] | 3.21 ± 0.086 | 3.53 ± 0.082 | 3.39 ± 0.069 | 3.47 ± 0.084

Sequence | protein stability index (doa10∆) | protein stability index (pdr5∆) | protein stability index (san1∆) | protein stability index (ubr1∆)
LSDYNIQKESTLHLVLR [RPS31] | 2.78 ± 0.08 | 2.72 ± 0.051 | 2.23 ± 0.065 | 2.58 ± 0.058
GIVDELAYAVLGIALIA [RPN1] | 1.76 ± 0.1 | 1.42 ± 0.1 | 1.48 ± 0.16 | 1.17 ± 0.062
ANPAGASQPEPTTNEPA [YJL041W/NSP1] | 2.82 ± 0.12 | 3 ± 0.11 | 2.92 ± 0.1 | 3.16 ± 0.095
NSINKTTVPFKESDDPS [POP1] | 2.5 ± 0.067 | 2.93 ± 0.06 | 2.71 ± 0.072 | 2.36 ± 0.065
LEFYKDKFFNEVNKSEL [SIR3] | 3.31 ± 0.066 | 3.27 ± 0.058 | 3.25 ± 0.043 | 3.43 ± 0.064
LLEQDTSTEKLYKLNDK [PRE9] | 2.99 ± 0.062 | 3.08 ± 0.07 | 2.91 ± 0.058 | 2.91 ± 0.056
EDEMMHEEDQKTNIIEK [RPN12] | 3.26 ± 0.1 | 3.09 ± 0.12 | 2.58 ± 0.15 | 2.85 ± 0.13
GETRMKMLNEFVKKTSE [SMC2] | 3.28 ± 0.1 | 3 ± 0.092 | 2.91 ± 0.068 | 3.26 ± 0.082
TTDDKSMDTKKKHKQKK [BRN1] | 3.21 ± 0.092 | 3.32 ± 0.09 | 3.51 ± 0.068 | 3.27 ± 0.054
FEAAVKMSDGFNGADIR [RPT4] | 3.66 ± 0.18 | 3.46 ± 0.091 | 3.34 ± 0.053 | 3.39 ± 0.09
IDGKTVSYKDYSIFLEN [SMC1] | 2.72 ± 0.062 | 3.07 ± 0.057 | 2.85 ± 0.061 | 2.89 ± 0.046
EDPNSAAFDEVEYKLTF [DIS3] | 1.18 ± 0.12 | 1.6 ± 0.29 | 1.17 ± 0.25 | 
TNWDDHAIIIFGYPETI [YMR153W/NUP53] | 2.45 ± 0.062 | 2.63 ± 0.048 | 2.3 ± 0.077 | 2.71 ± 0.038
TAILQRQLQYETLGDIL [ECM29] | 2.62 ± 0.086 | 3.31 ± 0.12 | 2.73 ± 0.098 | 3.02 ± 0.097
NILALNLVSLLIIVTRK [YML031W/NDC1] | 1.92 ± 0.072 | 1.35 ± 0.044 | 1.2 ± 0.11 | 1.32 ± 0.039
TTTRIQSQQAQPSDVMF [MED2] | 2.91 ± 0.061 | 2.79 ± 0.057 | 3 ± 0.063 | 2.87 ± 0.043
NDFFPGEVVYLRKQKDS [ITC1] | 2.03 ± 0.062 | 1.39 ± 0.059 | 1.35 ± 0.12 | 1.48 ± 0.081
IRYNSVEIQEVPRTADR [RPC82] | 2.52 ± 0.063 | 2.64 ± 0.044 | 2.88 ± 0.079 | 2.79 ± 0.048
FLESSKEIDPSQTTQLA [FAS2] | 2.89 ± 0.11 | 3 ± 0.085 | 2.6 ± 0.084 | 2.42 ± 0.14
LSFSWAILLIINLTQTY [NUT1] | 1.5 ± 0.088 | 1.96 ± 0.069 | 2.24 ± 0.097 | 2.06 ± 0.041
CFVLGIASMSTVRASSL [SMC2] | 1.51 ± 0.056 | 1.86 ± 0.055 | 1.83 ± 0.072 | 1.94 ± 0.065
DKLICSIDPPGCVDIDD [DIS3] | 3.33 ± 0.068 | 3.11 ± 0.062 | 2.78 ± 0.068 | 3.14 ± 0.091
SRRWRQRKNIQSLELMI [BRR2] | 1.39 ± 0.096 | 1.88 ± 0.073 | 2.15 ± 0.15 | 1.29 ± 0.057
LIRNVGTNTYRLGEWSK [POP1] | 1.9 ± 0.28 | 1.29 ± 0.22 | 1.12 ± 0.28 | 
QGSMSERPPYILNSYGV [SIR2] | 2.73 ± 0.072 | 3.03 ± 0.084 | 3 ± 0.066 | 2.87 ± 0.045
QIPVYDTFDGSDLRVLS [FAS1] | 2.7 ± 0.081 | 2.92 ± 0.059 | 2.53 ± 0.069 | 2.69 ± 0.058
